In the RNAGym collection of RNA variant scans (doi:10.1021/acssynbio.7b00057):

B1: Pistol ribozyme (parent)
chain: GGGUCGUUGUUCCAUAAUCGCGUGGAUAUGGCACGCAAGUUUCUACCGGGCACCGUAAAUGUCCGACUGGAGCCGUUCGGGCGGCUAUAAACAGACCUCAGGCCCGAAGCGUGGCGGCACCUGCCGCCGGUGGUAAAAAAGAUCGGAAGAGCACACGUCU

Variants of: B1
Assay: aptazyme ON/OFF ratio, guanine; higher = stronger switching; co-transcriptional cleavage with and without guanine

| Variant | aptazyme ON/OFF ratio |
| --- | --- |
| G9A U10G C12U C13G | 1.35 |
| G9A U10G C12U C13U | 1.05 |
| G9A U10G C12U C13A | 1.37 |
| G9C C12G C13A | 1.28 |
| G9C C12G C13G | 1.14 |
| G9C C12G C13U | 1.26 |
| G9A U10A U11G C12U C13U | 1.22 |
| G9A U10A U11G C12U C13G | 1.28 |
| G9A U10A U11G C12U C13A | 1.34 |
| G9A U11A C12G C13U | 1.41 |
| G9A U11A C12G C13G | 1.2 |
| G9A U11A C12G C13A | 1.39 |
| G9C U10A U11A C12A C13U | 1.27 |
| G9C U10A U11A C12A C13G | 1.21 |
| G9C U10A U11A C12A C13A | 1.4 |
| G9C U10A C12U C13G | 1.17 |
| G9C U10A C12U C13U | 1.07 |
| G9C U10A C12U C13A | 1.24 |
| G9A U10G U11C C12G C13A | 1.11 |
| G9A U10G U11C C12G C13U | 1.24 |
| G9A U10G U11C C12G C13G | 1.27 |
| G9A U10C U11C C13A | 1.02 |
| G9A U10C U11C C13U | 1.01 |
| G9A U10C U11C C13G | 1.07 |

| Variant | aptazyme ON/OFF ratio |
| --- | --- |
| G9C U10A U11A C12A | 1.52 |
| G9C U10A U11A C12U | 1.66 |
| G9C U10A U11A C12G | 1.5 |
| G9A U10A C13A | 1.41 |
| G9A U10A C13G | 1.14 |
| G9A U10A C13U | 1.5 |
| G9A U11C C13U | 1.11 |
| G9A U11C C13A | 1.03 |
| G9A U11C C13G | 1.11 |
| G9A U10C C12U | 1.5 |
| G9A U10C C12A | 1.38 |
| G9A U10C C12G | 1.32 |
| G9A U10A U11G C12A | 1.02 |
| G9A U10A U11G C12U | 1.42 |
| G9A U10A U11G C12G | 1.16 |
| G9A U10G U11A C12U C13G | 1.2 |
| G9A U10G U11A C12U C13A | 1.21 |
| G9A U10G U11A C12U C13U | 1.24 |
| G9A U10G U11G C13U | 1.12 |
| G9A U10G U11G C13G | 1.14 |
| G9A U10G U11G C13A | 1.2 |
| G9C U10A C12G C13A | 1.31 |
| G9C U10A C12G C13U | 1.22 |
| G9C U10A C12G C13G | 1.18 |

| Variant | aptazyme ON/OFF ratio |
| --- | --- |
| G9A U11G C12A | 1.1 |
| G9A U11G C12U | 2.06 |
| G9A U11G C12G | 1.3 |
| G9A U10G U11C C12A C13A | 1.18 |
| G9A U10G U11C C12A C13U | 1.25 |
| G9A U10G U11C C12A C13G | 1.15 |
| G9A U10G U11G C12G C13U | 1.15 |
| G9A U10G U11G C12G C13A | 1.16 |
| G9A U10G U11G C12G C13G | 1.22 |
| G9A U10C U11G C12U | 1.52 |
| G9A U10C U11G C12G | 1.18 |
| G9A U10C U11G C12A | 1.03 |
| G9A U10A C12A C13U | 1.36 |
| G9A U10A C12A C13A | 1.61 |
| G9A U10A C12A C13G | 1.06 |
| G9A U10C U11A | 2.25 |
| G9A U10C U11C | 1.06 |
| G9A U10C U11G | 1.86 |
| G9C U10A U11C C12A C13G | 1.18 |
| G9C U10A U11C C12A C13U | 1.29 |
| G9C U10A U11C C12A C13A | 1.3 |
| G9A U10C U11A C12U C13A | 1.35 |
| G9A U10C U11A C12U C13U | 1.22 |
| G9A U10C U11A C12U C13G | 1.29 |

| Variant | aptazyme ON/OFF ratio |
| --- | --- |
| G9A U10C U11G C13U | 1.39 |
| G9A U10C U11G C13G | 1.18 |
| G9A U10C U11G C13A | 1.39 |
| G9A U10A U11C C13G | 1.09 |
| G9A U10A U11C C13A | 1.13 |
| G9A U10A U11C C13U | 1.01 |
| G9A U10C U11C C12G C13A | 1.16 |
| G9A U10C U11C C12G C13G | 1.2 |
| G9A U10C U11C C12G C13U | 1.14 |
| G9A U10G U11A C12G C13U | 1.53 |
| G9A U10G U11A C12G C13A | 1.02 |
| G9A U10G U11A C12G C13G | 1.45 |
| G9A U10C C12U C13U | 1.34 |
| G9A U10C C12U C13G | 1.27 |
| G9A U10C C12U C13A | 1.38 |
| G9C U10A C12A | 1.81 |
| G9C U10A C12U | 1.6 |
| G9C U10A C12G | 1.22 |
| G9A U10G C12A | 1.53 |
| G9A U10G C12G | 1.24 |
| G9A U10G C12U | 1.82 |
| G9C U10A U11C C12G C13A | 1.32 |
| G9C U10A U11C C12G C13G | 1.44 |
| G9C U10A U11C C12G C13U | 1.24 |

| Variant | aptazyme ON/OFF ratio |
| --- | --- |
| G9A U10G U11A C13U | 1.05 |
| G9A U10G U11A C13A | 1.01 |
| G9A U10G U11A C13G | 1.04 |
| G9A U11A C12A C13A | 1.33 |
| G9A U11A C12A C13G | 1.29 |
| G9A U11A C12A C13U | 1.36 |
| G9A U10G U11G C12U C13A | 1.08 |
| G9A U10G U11G C12U C13U | 1.55 |
| G9A U10G U11G C12U C13G | 1.19 |
| G9C U10A U11A C12G C13U | 1.38 |
| G9C U10A U11A C12G C13G | 1.27 |
| G9C U10A U11A C12G C13A | 1.31 |
| G9A U10A U11A C13G | 1.05 |
| G9A U10A U11A C13U | 1.46 |
| G9A U10A U11A C13A | 1.11 |
| G9A U10A U11G C12A C13U | 1.26 |
| G9A U10A U11G C12A C13G | 1.28 |
| G9A U10A U11G C12A C13A | 1.07 |
| G9A U11C C12A C13U | 1.23 |
| G9A U11C C12A C13A | 1.06 |
| G9A U11C C12A C13G | 1.35 |
| G9A U10A U11G C13G | 1.11 |
| G9A U10A U11G C13U | 1.51 |
| G9A U10A U11G C13A | 1.34 |

| Variant | aptazyme ON/OFF ratio |
| --- | --- |
| G9A C13U | 1.52 |
| G9A C13A | 1.45 |
| G9A C13G | 1.07 |
| G9C U10A U11A C12U C13U | 1.42 |
| G9C U10A U11A C12U C13G | 1.14 |
| G9C U10A U11A C12U C13A | 1.34 |
| G9C C12G | 1.35 |
| G9C C12U | 1.07 |
| G9C C12A | 1.38 |
| G9A U10A C12G C13A | 1.47 |
| G9A U10A C12G C13G | 1.33 |
| G9A U10A C12G C13U | 1.57 |
| G9A U10G C12A C13A | 1.29 |
| G9A U10G C12A C13U | 1.69 |
| G9A U10G C12A C13G | 1.14 |
| G9C U10A U11A C13A | 1.22 |
| G9C U10A U11A C13G | 1.05 |
| G9C U10A U11A C13U | 1.32 |
| G9A U10A U11A C12A | 1.66 |
| G9A U10A U11A C12U | 1.68 |
| G9A U10A U11A C12G | 1.83 |
| G9A U10C C12A C13U | 1.19 |
| G9A U10C C12A C13A | 1.46 |
| G9A U10C C12A C13G | 1.29 |

| Variant | aptazyme ON/OFF ratio |
| --- | --- |
| G9A U11G C12U C13U | 1.21 |
| G9A U11G C12U C13A | 1.35 |
| G9A U11G C12U C13G | 1.42 |
| G9C U10A U11G C12A C13A | 1.06 |
| G9C U10A U11G C12A C13G | 1.17 |
| G9C U10A U11G C12A C13U | 1.17 |
| G9A U10C U11C C12U C13A | 1.03 |
| G9A U10C U11C C12U C13U | 1.06 |
| G9A U10C U11C C12U C13G | 1.04 |
| G9A U11G C13A | 1.37 |
| G9A U11G C13G | 1.1 |
| G9A U11G C13U | 1.44 |
| G9A U11A C12U C13U | 1.91 |
| G9A U11A C12U C13A | 1.37 |
| G9A U11A C12U C13G | 1.33 |
| G9A U10G U11A C12U | 1.04 |
| G9A U10G U11A C12A | 1.17 |
| G9A U10G U11A C12G | 1.33 |
| G9A U10C U11G C12U C13A | 1.37 |
| G9A U10C U11G C12U C13G | 1.43 |
| G9A U10C U11G C12U C13U | 1.4 |
| G9A U11C C12G C13U | 1.33 |
| G9A U11C C12G C13G | 1.15 |
